Reference: the supplement of paper PMC9732359
± gives the uncertainty stated by the source.

Test: protein stability index of a GFP-peptide fusion (yeast GPS) (PSI 1-4); higher = more stable; sorted into four equal gates, so the index is relative within each strain
Method in brief: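 Plasmids isolated from each sorting gate were PCR-amplified and Illumina-sequenced, and barcodes assigned the reads to strains. The gates, four of equal size, were set by GFP/Cherry fluorescence ratio on mid-log cultures in leucine-free medium. These cultures were yeast carrying a pooled library of tiled 17-residue yeast protein peptides fused downstream of GFP on a plasmid that also expresses Cherry. The protein stability index is the sum of every gate's read frequency times its gate number.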

Sequence | protein stability index (doa10∆) | protein stability index (pdr5∆) | protein stability index (san1∆) | protein stability index (ubr1∆)
LKEYQSKIIVFPRNGKA [RPL13A] | 3.04 ± 0.088 | 2.9 ± 0.091 | 2.98 ± 0.055 | 3 ± 0.076
LKIYAQIEKKEIKKMII [YCG1] | 3.06 ± 0.059 | 2.8 ± 0.051 | 2.89 ± 0.057 | 3.01 ± 0.07
LKIYYKEEFSSDESIER [RRI2] |  | 2.43 ± 0.15 | 2 ± 0.23 | 2.9 ± 0.11
LKLENLHVVSKSSIEKD [SIN4] | 3.13 ± 0.094 | 2.74 ± 0.11 | 3.14 ± 0.1 | 3.12 ± 0.068
LKLNTSLPSKLTKYKEM [SRP68] | 1.77 ± 0.075 | 1.74 ± 0.065 | 1.58 ± 0.1 | 1.95 ± 0.053
LKLSMADYNGALLRVTK [POP4] | 2.82 ± 0.076 | 2.52 ± 0.05 | 2.61 ± 0.07 | 2.52 ± 0.053
LKNYVLNELHPTLPTNH [PRP8] | 2.73 ± 0.047 | 3.04 ± 0.054 | 2.53 ± 0.064 | 2.67 ± 0.031
LKPKLYYEQFRPDLIKE [SIR3] | 3.06 ± 0.073 | 3.15 ± 0.06 | 3.25 ± 0.05 | 3.33 ± 0.045
LKRSTELLETVSLTKRK [YIL149C/MLP2] | 1.66 ± 0.056 | 2.06 ± 0.045 | 2.09 ± 0.079 | 1.6 ± 0.027
LKSLNDIETQLCSMLQE [MED11] | 2.54 ± 0.084 | 2.91 ± 0.079 | 2.73 ± 0.11 | 3 ± 0.059
LKSLYSFFNISPDAPKE [SIN4] | 2.32 ± 0.093 | 1.38 ± 0.048 | 1.43 ± 0.079 | 1.84 ± 0.049
LKTKLLEEVEGSCTGKF [RPB7] | 3.53 ± 0.29 | 2.84 ± 0.22 |  | 
LKTVLHNGRDKIQFHIH [RGR1] | 1.49 ± 0.047 | 1.49 ± 0.05 | 1.41 ± 0.074 | 1.39 ± 0.048
LKYHDFLRKATAFNKTR [RPL16B] | 2.98 ± 0.047 | 3.06 ± 0.054 | 2.77 ± 0.053 | 3.08 ± 0.036
LKYYQDLKNTRMKSITS [SNF5] | 1.45 ± 0.23 | 2.24 ± 0.19 | 2.4 ± 0.15 | 2.98 ± 0.22
LLDAGCKVVAEMIRGRS [SKP1] |  | 2.06 ± 0.14 |  | 1.91 ± 0.1
LLDAYSHIESDSTSHNN [MED1] | 2.73 ± 0.051 | 2.93 ± 0.048 | 2.6 ± 0.057 | 2.89 ± 0.038
LLEGLNEKIEKRSDLTG [UBP6] | 2.89 ± 0.092 | 3.11 ± 0.063 | 3.18 ± 0.081 | 3.32 ± 0.098
LLESYKTLSLKSMASAF [RPN7] | 1.67 ± 0.093 | 2.31 ± 0.11 | 1.89 ± 0.14 | 1.12 ± 0.033
LLFEDLFKKFNNDFKLS [RET1] |  | 1.39 ± 0.23 |  | 2.73 ± 0.13
LLGIFDDIFIPQNMLFE [RPC25] | 2.33 ± 0.15 | 2.7 ± 0.17 | 2.52 ± 0.095 | 2.69 ± 0.1
LLGTMAGGAADCQFWET [PRE2] | 1.61 ± 0.069 | 2.6 ± 0.078 | 2.22 ± 0.084 | 2.65 ± 0.078
LLHERKLLNDLALENGE [NUT1] | 2.75 ± 0.06 | 2.66 ± 0.073 | 2.54 ± 0.083 | 2.84 ± 0.039
LLIISCIIFITFEFINI [YML031W/NDC1] | 1.29 ± 0.038 | 1.43 ± 0.038 | 1.28 ± 0.079 | 1.28 ± 0.029
LLISYGVSIENENKVII [SRB4] | 2.1 ± 0.096 | 2.36 ± 0.14 | 3.13 ± 0.092 | 2.93 ± 0.12
LLKDIFANNLKSAISNN [SIR4] | 2.46 ± 0.044 | 2.48 ± 0.042 | 2.44 ± 0.043 | 2.44 ± 0.037

Sequence | protein stability index (doa10∆) | protein stability index (pdr5∆) | protein stability index (san1∆) | protein stability index (ubr1∆)
LLKEEKIIELMNKIFTI [YML103C/NUP188] | 2.81 ± 0.088 | 1.57 ± 0.097 | 1.26 ± 0.15 | 1.79 ± 0.25
LLKLERKKTEAVARLKS [SNF2] | 1.89 ± 0.068 | 2.14 ± 0.083 | 2.06 ± 0.091 | 1.97 ± 0.061
LLLAANTHLGARNVQVH [RPS0A] | 1.93 ± 0.04 | 1.21 ± 0.039 | 1.17 ± 0.061 | 1.13 ± 0.036
LLLDNGFNMKKITTSTE [SRP68] | 2.19 ± 0.18 | 2.22 ± 0.091 | 3.05 ± 0.17 | 2.88 ± 0.1
LLLKDQQTAKKLIPKLY [ECM29] | 2.1 ± 0.054 | 2.46 ± 0.061 | 2.32 ± 0.096 | 1.66 ± 0.053
LLLKKLDNFQKSVEKTM [SMC3] | 2.54 ± 0.2 | 2.74 ± 0.23 | 2.44 ± 0.24 | 2.88 ± 0.17
LLLTIQLLIIEKEWENA [SRP72] | 1.42 ± 0.053 | 1.73 ± 0.059 | 2.07 ± 0.12 | 2.26 ± 0.045
LLNDECTESTRENALYD [SNF2] | 3.39 ± 0.2 | 3.07 ± 0.15 | 3.31 ± 0.071 | 3.69 ± 0.15
LLNEYRPHQSRESLIML [MED7] | 2.31 ± 0.074 | 2.15 ± 0.12 | 2.01 ± 0.12 | 1.98 ± 0.059
LLNHGERAELETDEYIS [RPN1] | 1.55 ± 0.16 | 1.87 ± 0.083 | 3.08 ± 0.11 | 2.66 ± 0.11
LLNLPPFQVSSFVKETK [SRB8] | 1.94 ± 0.039 | 1.88 ± 0.035 | 2.04 ± 0.05 | 2.02 ± 0.04
LLPANLLSLNSVRSLQK [SRP68] | 2.71 ± 0.059 | 2.48 ± 0.063 | 2.49 ± 0.057 | 2.81 ± 0.046
LLQEGGSLSGNSSSMEE [ESC2] | 2.97 ± 0.11 | 2.67 ± 0.16 | 2.38 ± 0.13 | 2.64 ± 0.096
LLQKMLNLLNYQELFIQ [YML103C/NUP188] | 2.4 ± 0.053 | 1.47 ± 0.038 | 1.38 ± 0.07 | 1.52 ± 0.036
LLRPSSKVIIKFLQVMQ [RPS22B] | 1.87 ± 0.069 | 1.61 ± 0.044 | 1.72 ± 0.13 | 1.82 ± 0.058
LLRSRLATRRVLQEYRL [RPO21] | 2.62 ± 0.067 | 2.07 ± 0.083 | 2.27 ± 0.11 | 1.63 ± 0.072
LLTKNVSCYRPRRDGER [RPS6A] | 1.24 ± 0.22 | 2.8 ± 0.12 | 3.19 ± 0.085 | 3.4 ± 0.096
LLVFRNADLDLDEMELH [YDL116W/NUP84] | 3.01 ± 0.074 | 2.45 ± 0.073 | 3.01 ± 0.054 | 2.73 ± 0.047
LLVIGGNQRKILQYSRT [YJR042W/NUP85] | 1.86 ± 0.091 | 2.27 ± 0.096 | 1.46 ± 0.14 | 1.4 ± 0.072
LLVKLSKRLPLRFPEHT [BRR2] | 2.3 ± 0.063 | 2.75 ± 0.07 | 2.25 ± 0.17 | 2.42 ± 0.062
LMETLRTLRRKGDINPE [RPB2] | 3.08 ± 0.1 | 3.37 ± 0.079 | 2.85 ± 0.088 | 3.16 ± 0.069
LMRQALAIKDSKKRFAA [RPO21] | 1.83 ± 0.062 | 2.12 ± 0.055 | 1.98 ± 0.072 | 1.53 ± 0.049
LMTHITTDDEEEPIKKL [RET1] | 3.42 ± 0.27 | 3.41 ± 0.28 |  | 3.49 ± 0.17
LNEIKEHKIVVLGNSRG [RPN14] | 3.57 ± 0.19 |  | 3.18 ± 0.15 | 
LNEYKRETLVKTWEKVT [SMC2] | 1.67 ± 0.046 | 1.84 ± 0.046 | 1.77 ± 0.083 | 2.19 ± 0.039
